Positions of bridges follow the written chain, without caps; N, C: chain ends. No end group written: not given here.
What was measured:
[1] = target: β-klotho of differentiated 3T3-L1 adipocytes (mouse) (UniProt Q99N32); assay: cell-based or functional assay
[2] = target: human β-klotho (human, UniProt Q86Z14 1-1044); assay: cell-based or functional assay
[3] = target: T1, murine serum albumin (mouse, UniProt P07724 25-608); assay: SPR (Biacore), albumin immobilized on CM5 chip
T1 construct: also called MuSA; mouse serum albumin
T1 sequence (P07724 25-608 limits assumed): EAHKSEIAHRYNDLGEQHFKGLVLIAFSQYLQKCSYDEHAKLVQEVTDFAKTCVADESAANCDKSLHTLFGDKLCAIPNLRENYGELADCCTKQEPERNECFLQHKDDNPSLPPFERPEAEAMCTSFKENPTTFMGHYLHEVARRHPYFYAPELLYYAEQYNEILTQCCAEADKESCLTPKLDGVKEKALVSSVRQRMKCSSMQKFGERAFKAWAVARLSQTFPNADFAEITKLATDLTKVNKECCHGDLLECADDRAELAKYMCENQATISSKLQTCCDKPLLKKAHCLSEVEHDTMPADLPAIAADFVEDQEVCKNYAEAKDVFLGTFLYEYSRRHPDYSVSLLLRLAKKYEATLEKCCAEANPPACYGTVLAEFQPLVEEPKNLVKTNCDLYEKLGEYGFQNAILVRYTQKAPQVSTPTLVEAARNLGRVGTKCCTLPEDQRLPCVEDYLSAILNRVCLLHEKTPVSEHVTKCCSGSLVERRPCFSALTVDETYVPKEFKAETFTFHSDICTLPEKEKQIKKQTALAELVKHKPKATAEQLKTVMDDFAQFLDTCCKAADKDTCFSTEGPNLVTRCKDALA
Protocol: (§3) In addition, binding to albumin was carried out under various pH conditions ranging from pH 5.5 to pH 7.4.

[4] = target: T2, rhesus serum albumin (rhesus, UniProt Q28522 17-600); assay: SPR (Biacore), albumin immobilized on CM5 chip
T2 construct: also called RhSA
T2 sequence (Q28522 17-600 limits assumed): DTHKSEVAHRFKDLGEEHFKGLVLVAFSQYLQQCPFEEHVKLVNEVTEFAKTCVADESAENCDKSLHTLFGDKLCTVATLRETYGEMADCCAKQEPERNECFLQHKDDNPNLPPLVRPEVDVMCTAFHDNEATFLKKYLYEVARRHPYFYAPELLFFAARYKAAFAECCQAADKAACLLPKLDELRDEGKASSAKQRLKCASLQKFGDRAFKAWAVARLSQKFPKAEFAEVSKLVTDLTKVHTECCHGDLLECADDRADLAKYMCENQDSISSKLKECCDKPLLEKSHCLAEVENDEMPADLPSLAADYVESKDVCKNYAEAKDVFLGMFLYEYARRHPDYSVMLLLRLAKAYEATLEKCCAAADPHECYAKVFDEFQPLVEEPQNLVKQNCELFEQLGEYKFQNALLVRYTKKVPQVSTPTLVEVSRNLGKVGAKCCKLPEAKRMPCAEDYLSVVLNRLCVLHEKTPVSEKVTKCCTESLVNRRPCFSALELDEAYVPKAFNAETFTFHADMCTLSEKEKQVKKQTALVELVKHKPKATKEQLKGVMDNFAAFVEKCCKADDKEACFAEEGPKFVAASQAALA
Protocol: as §3

[5] = target: T3, human serum albumin (human, UniProt P02768 25-609); assay: SPR (Biacore), albumin immobilized on CM5 chip
T3 construct: also called HSA; HuSA
Protocol: as §3

[6] = target: human NPY Y4 receptor (human, UniProt P50391 1-375); assay: cell-based or functional assay
human NPY Y4 receptor, sequence (P50391 whole entry): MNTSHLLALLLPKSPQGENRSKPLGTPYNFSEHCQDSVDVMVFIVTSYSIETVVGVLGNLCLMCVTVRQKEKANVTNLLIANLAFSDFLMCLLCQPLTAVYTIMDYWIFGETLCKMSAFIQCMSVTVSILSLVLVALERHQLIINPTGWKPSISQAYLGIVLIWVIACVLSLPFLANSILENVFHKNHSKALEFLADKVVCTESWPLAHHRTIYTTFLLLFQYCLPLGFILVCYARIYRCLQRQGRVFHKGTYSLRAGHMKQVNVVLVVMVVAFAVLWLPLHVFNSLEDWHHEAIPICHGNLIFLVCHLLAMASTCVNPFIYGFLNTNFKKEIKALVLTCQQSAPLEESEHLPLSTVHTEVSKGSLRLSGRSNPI

[7] = target: Amylin receptor (chimpanzee; human, UniProt O60894 27-148); assay: cell-based or functional assay
Amylin receptor, sequence (O60894 27-148): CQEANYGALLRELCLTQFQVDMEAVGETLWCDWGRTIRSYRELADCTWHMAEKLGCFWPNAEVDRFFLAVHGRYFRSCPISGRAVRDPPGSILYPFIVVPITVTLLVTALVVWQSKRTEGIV

[8] = target: T3, human serum albumin; assay: Affinity for hSA by SPR (same value as in Table 21)
Protocol: (§1) Surface Plasmon Resonance (SPR) is a direct binding technique by which molecular interactions can be observed in real time. For these experiments, SPR binding studies were performed using a ProteOn XPR36 instrument (BioRad Laboratories). The running buffer, phosphate buffered saline 0.05% Tween 20 pH 7.4, was purchased from Teknova (cat #P1192) and all experiments were run at 25° C. Human serum albumin was directly immobilized on a BioRad GLC chip via amine coupling as per manufacturer's guidelines using amine coupling reagents purchased from BioRad Laboratories. Human serum albumin was purchased from Novozymes (Recombumin™). About 5000 resonance units (RU) of human serum albumin were immobilized onto 4 separate lanes of the GLC chip surface. […] The dissociation was monitored for 600 seconds. The surface was regenerated with 100 mM HCl. The resultant data were fitted to a Langumuir 1:1 binding model using the ProteOn Manager Software. The experiment was repeated with a different concentration range. In this second experiment, 5 concentrations ranging from 500 nM to 32 nM were injected over the surfaces, and the data analyzed as above. The KD is the disassociation constant. Smaller numbers indicate tighter binding to serum albumin.

[9] = target: T3, human serum albumin; assay: SPR (ProteOn XPR36), HSA immobilized on GLC chip, 25 C
Protocol: as §1

[10] = target: T4, human NPY Y2 receptor (human, UniProt P49146 1-381); assay: cell-based or functional assay
T4 sequence (looked up): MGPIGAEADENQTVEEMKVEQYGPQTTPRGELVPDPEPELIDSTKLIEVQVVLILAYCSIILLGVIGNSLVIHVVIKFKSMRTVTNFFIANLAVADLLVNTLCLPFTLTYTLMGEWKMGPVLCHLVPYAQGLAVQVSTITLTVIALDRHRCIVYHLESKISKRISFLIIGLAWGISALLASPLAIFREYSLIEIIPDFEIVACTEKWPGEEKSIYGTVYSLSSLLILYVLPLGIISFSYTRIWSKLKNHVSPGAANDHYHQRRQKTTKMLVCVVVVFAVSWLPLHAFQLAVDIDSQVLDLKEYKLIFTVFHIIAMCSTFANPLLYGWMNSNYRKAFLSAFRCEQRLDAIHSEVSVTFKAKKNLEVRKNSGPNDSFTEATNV

[11] = target: T5, cynomolgous monkey serum albumin (cynomolgous monkey, UniProt A2V9Z4 25-608); assay: SPR (Biacore T100), CySA immobilized, 37 C, 30 µl/min
T5 construct: also called CySA
T5 sequence (A2V9Z4 25-608 limits assumed): as the sequence (Q28522 17-600 limits assumed) above
Protocol: (§2) Serum albumins were dissolved in PBS buffer (10 mM sodium phosphate, 130 mM sodium chloride, pH 7.1) to a concentration of 10 mg/ml, and subsequently diluted to 8-10 μg/ml in 10 mM sodium acetate pH 5.0 for immobilization. Serum albumins were immobilized on a Series S CM5 sensor chip using standard ethyl(dimethylaminopropyl) carbodiimide (EDC)/N-hydroxysuccinimide (NHS) chemistry in HBS-EP+ running buffer at 25° C., following general manufacturer guidelines. Flow cell 1 was activated with EDC/NHS and blocked with ethanolamine. […] Kinetic experiments were performed in PBS buffer containing 0.05% tween-20 (running buffer) at either 25° C. or 37° C. […] These samples were injected across flow cells 1-4 for 300 s, with a 420 s dissociation time, at flow rates of 30 μl/min or 60 μl/min to check for mass transfer limitation. All surfaces were regenerated with 2 pulses of 10 mM glycine pH 2.0 at 30 μl/min for 30 s. Raw sensograms were “double-referenced” by subtracting flow cell 1 data from flow cell 2, 3 or 4 data, and then subtracting a separate buffer cycle from each sensogram. The double-referenced sensogram data was fitted to a 1:1 Langmuir model using Biacore T100 Evaluation software version 2.0.2 to determine the association rate constant (ka), the dissociation rate constant (kd), and the equilibrium dissociation constant (KD).

[12] = target: T3, human serum albumin; assay: SPR (Biacore T100), HSA immobilized, 37 C, 60 µl/min
Protocol: as §2

[13] = target: T3, human serum albumin; assay: SPR (Biacore T100), HSA immobilized, 37 C, 30 µl/min
Protocol: as §2

[14] = target: T1, murine serum albumin; assay: SPR (Biacore T100), immobilized MuSA, analyte series 1000 to 62.5 nM, 37 C
Protocol: as §2

[15] = target: T5, cynomolgous monkey serum albumin; assay: SPR (Biacore T100), CySA immobilized, 37 C, 60 µl/min
Protocol: as §2

β-klotho of differentiated 3T3-L1 adipocytes (mouse), sequence (Q99N32 whole entry): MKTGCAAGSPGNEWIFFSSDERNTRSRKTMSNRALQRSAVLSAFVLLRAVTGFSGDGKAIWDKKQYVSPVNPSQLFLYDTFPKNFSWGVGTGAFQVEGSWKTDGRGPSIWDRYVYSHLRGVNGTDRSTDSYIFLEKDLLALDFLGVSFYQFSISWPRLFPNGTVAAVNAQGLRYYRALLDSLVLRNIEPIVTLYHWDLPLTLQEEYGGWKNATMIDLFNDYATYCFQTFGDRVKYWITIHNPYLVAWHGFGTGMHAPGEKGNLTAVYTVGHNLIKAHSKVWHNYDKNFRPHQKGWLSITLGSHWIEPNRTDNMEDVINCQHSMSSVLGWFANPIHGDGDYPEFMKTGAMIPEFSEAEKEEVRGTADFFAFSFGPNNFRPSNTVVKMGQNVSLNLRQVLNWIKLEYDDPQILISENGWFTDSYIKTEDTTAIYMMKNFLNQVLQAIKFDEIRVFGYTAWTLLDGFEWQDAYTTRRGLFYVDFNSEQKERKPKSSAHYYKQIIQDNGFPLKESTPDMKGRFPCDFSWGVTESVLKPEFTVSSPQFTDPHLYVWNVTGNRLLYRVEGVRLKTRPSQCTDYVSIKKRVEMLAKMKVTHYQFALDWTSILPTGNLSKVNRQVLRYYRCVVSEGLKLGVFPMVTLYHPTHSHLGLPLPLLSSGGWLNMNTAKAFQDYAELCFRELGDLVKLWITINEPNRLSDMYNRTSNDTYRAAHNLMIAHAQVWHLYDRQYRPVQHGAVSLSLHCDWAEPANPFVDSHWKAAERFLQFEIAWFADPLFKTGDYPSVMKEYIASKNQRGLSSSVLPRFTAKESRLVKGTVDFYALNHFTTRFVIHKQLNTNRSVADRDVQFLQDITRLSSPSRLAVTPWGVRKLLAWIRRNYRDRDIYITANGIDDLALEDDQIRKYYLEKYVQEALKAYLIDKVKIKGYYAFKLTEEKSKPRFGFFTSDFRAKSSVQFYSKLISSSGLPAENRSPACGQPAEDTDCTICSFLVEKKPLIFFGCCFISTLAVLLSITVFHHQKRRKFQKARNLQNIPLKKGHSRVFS

“His-tagged FGF21 (from UniProt Q9NSA1 29-209) (ligand)” showed an EC50 (nM), pERK assay in 3T3-L1 adipocytes [1] of 4 nM, a Fold Activation, pERK assay in 3T3-L1 adipocytes [1] of 2.1 fold and an EC50 (nM), pERK 1/2 assay in HEK β-Klotho expressing stable cells [2] of 7 nM. It also gave an Efficacy (%), pERK 1/2 assay in HEK β-Klotho expressing stable cells [2] of 100%.

B1: SABA1.1 (designed binder)
chain: MGVSDVPRDLEVVAATPTSLLISWHSYYEQNSYYRITYGETGGNSPVQEFTVPYSQTTATISGLKPGVDYTITVYAVYGSKYYYPISINYRTEIDKPSQHHHHHH
For B1, the binding result [3] was “no binding”, the Kd [4] was 778 nM and the koff [4] was 0.00545 s⁻¹. The Kd [5] was 47.2 nM and the koff [5] was 0.000457 s⁻¹.

B2: SABA4.1 (designed binder)
chain: MGVSDVPRDLEMVAATPTSLLISWEDDSYYSRYYRITYGETGGNSPVQEFTVPSDLYTATISGLKPGVDYTITVYAVTYDVTDLIMHEPISINYRTEIDKPSQHHHHHH
notes: His6-tagged Adnectin core 4; has a scaffold mutation; the scaffold-perfect version is SABA5
In the case of B2, the binding result [3] is reported as “no binding”, the Kd [4] is reported as greater than 1000 nM and the koff [4] is reported as 0.00383 s⁻¹. It also gave a Kd [5] of 412 nM and a koff [5] of 0.000782 s⁻¹.

B3: SABA2.1 (designed binder)
chain: MGVSDVPRDLEVVAATPTSLLISWPKYDKTGHYYRITYGETGGNSPVQEFTVPTRQTTATISGLKPGVDYTITVYAVSKDDYYPHEHRPISINYRTEIDKPSQHHHHHH
notes: His6-tagged Adnectin core 2
For B3, the binding result [3] was “no binding”, the Kd [4] was 63.6 nM and the koff [4] was 0.000442 s⁻¹. It also gave a Kd [5] of 33.8 nM and a koff [5] of 0.000171 s⁻¹.

B4: PP Control Peptide (peptide)
peptide: APLEPMYPGDYATPEQMAQYETQLRRYINTLTRPRY-NH2
For B4, the “Potency (EC50, nM), GTPγS binding functional assay” value [6] was 1.7 nM.

B5: Amylin Control Peptide (peptide)
peptide: KCNTATCATQRLANFLVRSSNNLGPVLPPTNVGSNTY-NH2
modifications: disulfide 2-7
For B5, the “Efficacy (% of native peptide ligand maximal activity), cellular cAMP assay” value [7] was 100%.

B6: SABA3.1 (designed binder)
chain: MGVSDVPRDLEVVAATPTSLLISWSNDGPGLSYYRITYGETGGNSPVQEFTVPSSQTTATISGLKPGVDYTITVYAVSYYTKKAYSAGPISINYRTEIDKPSQHHHHHH
notes: His6-tagged Adnectin core 3
B6 was tested, and the binding result [3] was “no binding”, the Kd [4] was 431 nM and the koff [4] was 0.0337 s⁻¹. For the same molecule, the Kd [5] was 863 nM and the koff [5] was 0.0682 s⁻¹.

B7: SABA1-AMYv25 (designed binder)
chain: MGVSDVPRDLEVVAATPTSLLISWHSYYEQNSYYRITYGETGGNSPVQEFTVPYSQTTATISGLKPGVDYTITVYAVYGSKYYYPISINYRTEIEDEDEDEDEDGC
modifications: Maleimide-PEG20 spacer (X1) between the Cys after (ED)5G and AMYv5 (rat amylin); C-terminal amidation; disulfide bridge between the two Cys residues of amylin
notes: also called SABA-Amylin-CONH2 conjugate; SABA1.7-(ED)5G-Cys-PEG20-Amylin-CONH2
For B7, the “Cell based Potency (EC50, nM), cellular cAMP assay” value [7] was 12.2 nM, the “Efficacy (% of native peptide ligand maximal activity), cellular cAMP assay” value [7] was 119% and the Kd [8] was 25.8 nM. For the same molecule, the Kd [9] was 25.8 nM, the koff [9] was 0.000241 s⁻¹ and the kon [9] was 9340 M⁻¹ s⁻¹.

B8: SABA1-PPv7 (designed binder)
chain: MGVSDVPRDLEVVAATPTSLLISWHSYYEQNSYYRITYGETGGNSPVQEFTVPYSQTTATISGLKPGVDYTITVYAVYGSKYYYPISINYRTEIEDEDEDEDEDGC
modifications: Maleimide-PEG20 spacer (X1) between the Cys after (ED)5G and PPv9 (mouse PP); C-terminal amidation
notes: also called SABA-PP-CONH2 conjugate; SABA1-APPv7
For B8, the “Potency (EC50), GTPγS binding functional assay” value [6] was greater than 1000 nM, the Kd [8] was 18.8 nM and the Kd [9] was 18.8 nM. The koff [9] was 0.000142 s⁻¹ and the kon [9] was 7880 M⁻¹ s⁻¹.

B9: SABA1-PYYv7 (designed binder)
chain: MGVSDVPRDLEVVAATPTSLLISWHSYYEQNSYYRITYGETGGNSPVQEFTVPYSQTTATISGLKPGVDYTITVYAVYGSKYYYPISINYRTEIEDEDEDEDEDGC
modifications: Maleimide-PEG20 spacer (X1) between the Cys after (ED)5G and PYYv17 (mouse PYY3-36); C-terminal amidation
notes: also called SABA-PYY3-36-CONH2 conjugate; SABA1.7-(ED)5G-Cys-PEG20-PYY-CONH2
In the case of B9, the “Potency (EC50, nM), GTPγS binding functional assay” value [10] is reported as 52 nM, the Kd [8] is reported as 22.5 nM and the Kd [9] is reported as 22.5 nM. For the same molecule, the koff [9] was 0.000208 s⁻¹ and the kon [9] was 9290 M⁻¹ s⁻¹.

B10: SABA1-FGF21v3 (designed binder)
chain: MGVSDVPRDLEVVAATPTSLLISWHSYYEQNSYYRITYGETGGNSPVQEFTVPYSQTTATISGLKPGVDYTITVYAVYGSKYYYPISINYRTEIDKPSQHHHHHHGSGSGSGSGSGSGSPIPDSSPLLQFGGQVRQRYLYTDDAQQTEAHLEIREDGTVGGAADQSPESLLQLKALKPGVIQILGVKTSRFLCQRPDGALYGSLHFDPEACSFRELLLEDGYNVYQSEAHGLPLHLPGNKSPHRDPAPRGPARFLPLPGLPPALPEPPGILAPQPPDVGSSDPLSMVGPSQGRSPSYAS
notes: Fusion of SABA1 and FGF21; also called SABA1-FGF21 variant 3
B10 showed a Kd [11] of 2200 nM, a koff [11] of 0.0117 s⁻¹ and a kon [11] of 5310 M⁻¹ s⁻¹. The Kd [12] was 180 nM, the koff [12] was 0.00107 s⁻¹ and the kon [12] was 5870 M⁻¹ s⁻¹. It also gave a Kd [13] of 170 nM, a koff [13] of 0.00103 s⁻¹ and a kon [13] of 6160 M⁻¹ s⁻¹. The binding result [14] was “no binding (tested: 1000 nM)”, the Kd [15] was 3100 nM and the koff [15] was 0.0136 s⁻¹. It also gave a kon [15] of 4380 M⁻¹ s⁻¹.
